From article PMC10421740, “A universal deep-learning model for zinc finger design enables transcription factor reprogramming”

Legend:
[1] = target: ZIM3 reprogrammed with array DPH1_15 F1-6 (synthetic construct, UniProt Q96PE6 1-166); assay: Zn; HEK293T, RT-qPCR 3 days after transfection
[2] = target: ZIM3 reprogrammed with array DPH1_15 F1-8 Q (synthetic construct, UniProt Q96PE6 1-166); assay: Zn; HEK293T, RT-qPCR 3 days after transfection
[3] = target: ZIM3 reprogrammed with array DPH1_15 (synthetic construct, UniProt Q96PE6 1-166); assay: Zn; HEK293T, RT-qPCR 3 days after transfection
ZIM3 reprogrammed with array DPH1_15, sequence (Q96PE6 other isoform, or with tags, fused parts or gaps): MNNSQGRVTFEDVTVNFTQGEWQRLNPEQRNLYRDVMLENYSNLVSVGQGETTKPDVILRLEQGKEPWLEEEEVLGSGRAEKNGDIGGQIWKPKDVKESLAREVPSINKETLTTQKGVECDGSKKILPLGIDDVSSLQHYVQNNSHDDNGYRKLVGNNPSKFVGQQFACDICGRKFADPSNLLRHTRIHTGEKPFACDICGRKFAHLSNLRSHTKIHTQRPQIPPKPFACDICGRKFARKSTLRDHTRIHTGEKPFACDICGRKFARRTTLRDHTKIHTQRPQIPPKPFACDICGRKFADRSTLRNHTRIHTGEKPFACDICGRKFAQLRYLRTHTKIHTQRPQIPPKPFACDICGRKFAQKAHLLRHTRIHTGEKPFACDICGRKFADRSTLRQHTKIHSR

[4] = target: ZIM3 reprogrammed with array DPH1_15 F3-8 (synthetic construct, UniProt Q96PE6 1-166); assay: Zn; HEK293T, RT-qPCR 3 days after transfection
ZIM3 reprogrammed with array DPH1_15 F3-8, sequence (Q96PE6 other isoform, or with tags, fused parts or gaps): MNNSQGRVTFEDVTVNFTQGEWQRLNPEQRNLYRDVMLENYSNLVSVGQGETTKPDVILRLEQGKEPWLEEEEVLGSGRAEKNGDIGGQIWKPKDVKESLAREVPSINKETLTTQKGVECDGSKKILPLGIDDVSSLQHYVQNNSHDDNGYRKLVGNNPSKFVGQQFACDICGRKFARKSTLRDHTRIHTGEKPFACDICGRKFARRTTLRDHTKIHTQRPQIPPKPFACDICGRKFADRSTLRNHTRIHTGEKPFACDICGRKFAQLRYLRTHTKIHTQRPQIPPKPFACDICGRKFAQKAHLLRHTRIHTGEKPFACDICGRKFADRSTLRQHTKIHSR

[5] = target: ZIM3 reprogrammed with array DPH1TSSR (synthetic construct, UniProt Q96PE6 1-166); assay: Zn; HEK293T, RT-qPCR 3 days after transfection
ZIM3 reprogrammed with array DPH1TSSR, sequence (Q96PE6 other isoform, or with tags, fused parts or gaps): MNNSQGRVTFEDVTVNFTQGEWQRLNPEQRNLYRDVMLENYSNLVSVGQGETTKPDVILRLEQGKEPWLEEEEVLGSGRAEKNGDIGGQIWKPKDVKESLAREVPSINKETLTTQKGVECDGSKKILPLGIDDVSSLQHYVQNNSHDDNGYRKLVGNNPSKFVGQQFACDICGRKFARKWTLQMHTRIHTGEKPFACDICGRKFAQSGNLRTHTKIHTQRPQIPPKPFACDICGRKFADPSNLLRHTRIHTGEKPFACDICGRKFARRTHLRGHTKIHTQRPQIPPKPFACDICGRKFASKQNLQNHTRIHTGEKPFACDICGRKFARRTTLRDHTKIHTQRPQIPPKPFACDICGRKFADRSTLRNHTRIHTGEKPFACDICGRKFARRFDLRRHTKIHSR

[6] = target: ZFN pair 12BC_substituted + 12ED_substituted (synthetic construct, UniProt P14870;P14870 384-579;384-579); assay: Zn; U2OS eGFP disruption, 3 days after nucleofection; details: tags: N-terminal 3xFLAG and SV40 NLS (kept in the assay, left out here); copies: 1;1
[7] = target: ZFN pair 12BC_designed + 12ED_designed (synthetic construct, UniProt P14870;P14870 384-579;384-579); assay: as above; details: tags: N-terminal 3xFLAG and SV40 NLS (kept in the assay, left out here); copies: 1;1
[8] = target: T1, ZFN pair 12BC_selected + 12ED_selected (synthetic construct, UniProt P14870;P14870 384-579;384-579); assay: as above; details: tags: N-terminal 3xFLAG and SV40 NLS (kept in the assay, left out here); copies: 1;1
T1 chain 1: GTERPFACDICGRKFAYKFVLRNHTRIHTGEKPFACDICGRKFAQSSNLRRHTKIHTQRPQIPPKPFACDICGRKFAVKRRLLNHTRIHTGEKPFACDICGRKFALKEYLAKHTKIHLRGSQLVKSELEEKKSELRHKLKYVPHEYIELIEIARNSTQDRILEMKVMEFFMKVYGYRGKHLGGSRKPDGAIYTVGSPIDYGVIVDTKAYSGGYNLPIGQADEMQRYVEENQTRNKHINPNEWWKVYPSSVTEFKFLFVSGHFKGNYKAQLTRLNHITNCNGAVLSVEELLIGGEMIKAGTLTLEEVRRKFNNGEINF
T1 chain 2: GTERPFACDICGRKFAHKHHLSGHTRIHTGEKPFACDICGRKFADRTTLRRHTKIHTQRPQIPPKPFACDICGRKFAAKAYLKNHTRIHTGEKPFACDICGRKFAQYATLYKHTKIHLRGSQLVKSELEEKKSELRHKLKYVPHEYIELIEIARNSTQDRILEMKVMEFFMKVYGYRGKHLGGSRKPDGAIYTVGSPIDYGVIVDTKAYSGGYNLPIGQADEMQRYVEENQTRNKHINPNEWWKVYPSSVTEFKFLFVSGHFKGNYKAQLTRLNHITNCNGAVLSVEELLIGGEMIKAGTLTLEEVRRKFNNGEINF

[9] = target: T2, KLF6 reprogrammed with array CDKN1C_200 (synthetic construct, UniProt Q99612 1-199); assay: Zn; HEK293T, RT-qPCR 3 days after transfection
T2 chain: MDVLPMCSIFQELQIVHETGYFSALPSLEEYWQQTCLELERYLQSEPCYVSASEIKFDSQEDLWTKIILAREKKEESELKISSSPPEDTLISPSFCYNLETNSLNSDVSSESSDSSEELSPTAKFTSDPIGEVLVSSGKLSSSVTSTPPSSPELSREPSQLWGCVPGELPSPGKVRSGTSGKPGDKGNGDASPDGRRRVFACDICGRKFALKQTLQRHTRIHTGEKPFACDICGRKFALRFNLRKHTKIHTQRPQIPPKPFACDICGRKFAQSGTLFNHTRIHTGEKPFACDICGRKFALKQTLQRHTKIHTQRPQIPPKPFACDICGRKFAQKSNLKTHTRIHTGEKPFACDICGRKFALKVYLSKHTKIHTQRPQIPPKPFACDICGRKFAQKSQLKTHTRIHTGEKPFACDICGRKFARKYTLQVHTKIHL

[10] = target: T3, KLF6 reprogrammed with array CDKN1C_200 8Q (synthetic construct, UniProt Q99612 1-199); assay: Zn; HEK293T, RT-qPCR 3 days after transfection; details: tags: C-terminal linker + 3xFLAG (left out)
T3 chain: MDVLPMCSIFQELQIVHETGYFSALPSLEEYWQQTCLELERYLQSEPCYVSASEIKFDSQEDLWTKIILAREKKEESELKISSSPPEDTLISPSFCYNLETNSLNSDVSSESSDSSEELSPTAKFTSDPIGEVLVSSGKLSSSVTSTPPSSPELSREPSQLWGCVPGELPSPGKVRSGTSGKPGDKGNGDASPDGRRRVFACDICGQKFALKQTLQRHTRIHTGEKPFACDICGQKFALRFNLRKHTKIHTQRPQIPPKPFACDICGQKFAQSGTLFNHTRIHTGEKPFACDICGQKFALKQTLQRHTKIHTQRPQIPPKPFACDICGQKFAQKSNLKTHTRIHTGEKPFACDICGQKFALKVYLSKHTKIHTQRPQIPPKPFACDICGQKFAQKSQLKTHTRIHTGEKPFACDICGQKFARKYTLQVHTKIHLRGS

[11] = target: T4, KLF6 reprogrammed with array CDKN1C_200 F3-8 (synthetic construct, UniProt Q99612 1-199); assay: Zn; HEK293T, RT-qPCR 3 days after transfection
T4 chain: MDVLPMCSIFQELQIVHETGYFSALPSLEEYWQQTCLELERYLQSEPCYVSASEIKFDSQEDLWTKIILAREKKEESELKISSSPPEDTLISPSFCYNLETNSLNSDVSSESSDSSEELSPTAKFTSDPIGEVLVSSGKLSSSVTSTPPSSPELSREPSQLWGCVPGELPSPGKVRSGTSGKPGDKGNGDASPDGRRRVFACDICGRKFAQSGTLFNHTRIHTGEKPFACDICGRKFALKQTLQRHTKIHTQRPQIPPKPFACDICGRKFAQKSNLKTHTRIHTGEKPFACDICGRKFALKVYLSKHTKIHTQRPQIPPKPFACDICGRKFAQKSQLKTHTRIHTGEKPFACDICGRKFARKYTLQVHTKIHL

[12] = target: ZFN pair 10BC_substituted + 10ED_substituted (synthetic construct, UniProt P14870;P14870 384-579;384-579); assay: Zn; U2OS eGFP disruption, 3 days after nucleofection; details: tags: N-terminal 3xFLAG and SV40 NLS (kept in the assay, left out here); copies: 1;1
[13] = target: ZFN pair 10BC_designed + 10ED_designed (synthetic construct, UniProt P14870;P14870 384-579;384-579); assay: as above; details: tags: N-terminal 3xFLAG and SV40 NLS (kept in the assay, left out here); copies: 1;1
[14] = target: ZFN pair 10BC_selected + 10ED_selected (synthetic construct, UniProt P14870;P14870 384-579;384-579); assay: as above; details: tags: N-terminal 3xFLAG and SV40 NLS (kept in the assay, left out here); copies: 1;1
[15] = target: ZIM3 reprogrammed with array DPH1T2F8 (synthetic construct, UniProt Q96PE6 1-166); assay: Zn; HEK293T, RT-qPCR 3 days after transfection
ZIM3 reprogrammed with array DPH1T2F8, sequence (Q96PE6 other isoform, or with tags, fused parts or gaps): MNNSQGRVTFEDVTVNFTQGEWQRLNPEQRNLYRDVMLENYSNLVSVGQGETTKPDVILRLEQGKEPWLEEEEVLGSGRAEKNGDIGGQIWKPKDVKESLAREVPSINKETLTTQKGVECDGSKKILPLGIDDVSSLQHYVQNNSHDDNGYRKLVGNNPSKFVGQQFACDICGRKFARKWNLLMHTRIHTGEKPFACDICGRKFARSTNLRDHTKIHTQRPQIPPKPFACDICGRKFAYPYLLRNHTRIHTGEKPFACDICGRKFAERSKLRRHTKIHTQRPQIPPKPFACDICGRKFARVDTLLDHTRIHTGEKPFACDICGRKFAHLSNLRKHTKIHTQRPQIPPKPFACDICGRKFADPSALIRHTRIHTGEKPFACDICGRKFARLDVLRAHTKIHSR

[16] = target: ZIM3 reprogrammed with array Rab1a T2R8 (synthetic construct, UniProt Q96PE6 1-166); assay: Zn; HEK293T, RT-qPCR 3 days after transfection
ZIM3 reprogrammed with array Rab1a T2R8, sequence (Q96PE6 other isoform, or with tags, fused parts or gaps): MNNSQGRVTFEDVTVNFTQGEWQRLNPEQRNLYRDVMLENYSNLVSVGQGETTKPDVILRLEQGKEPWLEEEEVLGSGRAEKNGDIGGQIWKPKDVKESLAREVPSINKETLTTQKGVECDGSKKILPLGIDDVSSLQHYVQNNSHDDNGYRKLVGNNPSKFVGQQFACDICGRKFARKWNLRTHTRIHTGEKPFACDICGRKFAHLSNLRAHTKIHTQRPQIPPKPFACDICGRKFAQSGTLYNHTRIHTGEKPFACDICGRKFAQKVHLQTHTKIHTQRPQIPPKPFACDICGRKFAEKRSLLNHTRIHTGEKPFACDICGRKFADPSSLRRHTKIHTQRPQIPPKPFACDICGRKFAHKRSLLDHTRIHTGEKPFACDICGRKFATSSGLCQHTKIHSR

[17] = target: ZFN pair 18BC_selected + 18ED_selected (synthetic construct, UniProt P14870;P14870 384-579;384-579); assay: Zn; U2OS eGFP disruption, 3 days after nucleofection; details: tags: N-terminal 3xFLAG and SV40 NLS (kept in the assay, left out here); copies: 1;1
[18] = target: ZFN pair 18BC_designed + 18ED_designed (synthetic construct, UniProt P14870;P14870 384-579;384-579); assay: as above; details: tags: N-terminal 3xFLAG and SV40 NLS (kept in the assay, left out here); copies: 1;1
[19] = target: ZIM3 reprogrammed with array DPH1T2R8 (synthetic construct, UniProt Q96PE6 1-166); assay: Zn; HEK293T, RT-qPCR 3 days after transfection
ZIM3 reprogrammed with array DPH1T2R8, sequence (Q96PE6 other isoform, or with tags, fused parts or gaps): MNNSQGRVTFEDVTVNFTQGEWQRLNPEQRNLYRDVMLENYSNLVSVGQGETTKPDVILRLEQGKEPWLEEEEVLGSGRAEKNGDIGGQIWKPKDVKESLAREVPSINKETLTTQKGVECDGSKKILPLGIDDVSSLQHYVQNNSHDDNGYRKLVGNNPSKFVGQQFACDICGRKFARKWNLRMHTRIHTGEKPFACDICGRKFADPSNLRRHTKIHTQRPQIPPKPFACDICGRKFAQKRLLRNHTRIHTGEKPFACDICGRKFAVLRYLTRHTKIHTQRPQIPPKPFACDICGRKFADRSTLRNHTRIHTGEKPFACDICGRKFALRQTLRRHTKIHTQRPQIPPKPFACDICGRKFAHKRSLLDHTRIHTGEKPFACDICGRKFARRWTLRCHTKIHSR

[20] = target: ZIM3 reprogrammed with array UBE4A T1R8 (synthetic construct, UniProt Q96PE6 1-166); assay: Zn; HEK293T, RT-qPCR 3 days after transfection
ZIM3 reprogrammed with array UBE4A T1R8, sequence (Q96PE6 other isoform, or with tags, fused parts or gaps): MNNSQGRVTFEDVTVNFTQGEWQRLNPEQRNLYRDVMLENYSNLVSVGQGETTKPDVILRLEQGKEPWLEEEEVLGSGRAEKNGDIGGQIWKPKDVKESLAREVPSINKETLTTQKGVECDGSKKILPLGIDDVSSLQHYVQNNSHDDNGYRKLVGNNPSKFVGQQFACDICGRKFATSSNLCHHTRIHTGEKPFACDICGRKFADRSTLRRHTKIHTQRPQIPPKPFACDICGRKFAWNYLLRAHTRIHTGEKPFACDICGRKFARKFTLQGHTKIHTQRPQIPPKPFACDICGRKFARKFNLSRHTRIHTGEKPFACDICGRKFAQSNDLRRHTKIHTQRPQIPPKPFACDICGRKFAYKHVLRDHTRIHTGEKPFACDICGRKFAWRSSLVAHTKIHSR

[21] = target: ZIM3 reprogrammed with array UBE4A T1F8 (synthetic construct, UniProt Q96PE6 1-166); assay: Zn; HEK293T, RT-qPCR 3 days after transfection
ZIM3 reprogrammed with array UBE4A T1F8, sequence (Q96PE6 other isoform, or with tags, fused parts or gaps): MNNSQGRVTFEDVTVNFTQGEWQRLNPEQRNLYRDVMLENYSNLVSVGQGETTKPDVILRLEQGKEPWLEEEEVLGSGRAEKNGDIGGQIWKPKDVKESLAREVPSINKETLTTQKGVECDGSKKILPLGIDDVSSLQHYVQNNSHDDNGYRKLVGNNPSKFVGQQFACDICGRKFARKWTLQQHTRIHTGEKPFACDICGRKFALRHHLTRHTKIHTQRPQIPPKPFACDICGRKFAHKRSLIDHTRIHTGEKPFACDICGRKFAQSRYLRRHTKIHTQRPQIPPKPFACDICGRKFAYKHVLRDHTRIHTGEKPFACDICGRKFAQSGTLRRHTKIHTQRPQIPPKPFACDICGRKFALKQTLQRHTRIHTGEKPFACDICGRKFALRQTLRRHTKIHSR

array CDKN1C 125RC = array CDKN1C 125RC (synthetic construct); assay: Zn; HEK293T, RNA-seq; details: tags: N-terminal SV40 NLS, C-terminal GS linker + VP64 (left out)
array CDKN1C 125RC (synthetic construct), sequence (chain, as listed by the source): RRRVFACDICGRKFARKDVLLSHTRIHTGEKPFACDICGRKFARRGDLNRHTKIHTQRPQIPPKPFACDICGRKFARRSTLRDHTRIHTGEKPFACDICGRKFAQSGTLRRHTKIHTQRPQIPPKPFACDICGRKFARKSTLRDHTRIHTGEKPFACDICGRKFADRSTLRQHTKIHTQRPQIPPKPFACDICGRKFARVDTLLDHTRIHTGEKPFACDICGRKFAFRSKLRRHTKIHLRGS

ZIM3 reprogrammed with array DPH1_15 F1-6, sequence (Q96PE6 other isoform, or with tags, fused parts or gaps): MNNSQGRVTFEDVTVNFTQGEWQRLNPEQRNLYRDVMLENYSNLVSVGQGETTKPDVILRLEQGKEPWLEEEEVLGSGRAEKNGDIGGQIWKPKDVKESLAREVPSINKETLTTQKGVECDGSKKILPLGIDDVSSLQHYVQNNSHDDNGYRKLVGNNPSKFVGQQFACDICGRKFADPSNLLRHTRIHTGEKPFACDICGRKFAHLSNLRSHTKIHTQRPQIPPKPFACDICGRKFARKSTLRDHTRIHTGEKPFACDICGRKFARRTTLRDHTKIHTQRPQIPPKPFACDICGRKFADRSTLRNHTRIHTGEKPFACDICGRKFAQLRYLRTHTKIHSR
ZIM3 reprogrammed with array DPH1_15 F1-8 Q, sequence (Q96PE6 other isoform, or with tags, fused parts or gaps): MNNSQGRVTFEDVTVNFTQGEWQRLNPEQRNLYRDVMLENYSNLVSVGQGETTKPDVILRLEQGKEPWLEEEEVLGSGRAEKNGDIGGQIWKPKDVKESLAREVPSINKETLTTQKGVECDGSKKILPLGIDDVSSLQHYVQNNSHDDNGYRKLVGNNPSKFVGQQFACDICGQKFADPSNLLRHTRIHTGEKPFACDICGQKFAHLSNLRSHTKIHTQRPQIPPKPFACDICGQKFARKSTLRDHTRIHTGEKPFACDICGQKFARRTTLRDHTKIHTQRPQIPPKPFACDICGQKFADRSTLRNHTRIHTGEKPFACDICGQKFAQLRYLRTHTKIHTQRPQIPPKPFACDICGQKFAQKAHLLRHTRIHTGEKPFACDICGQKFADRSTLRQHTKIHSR

B1: DPH1_15 (dsDNA)
DNA 1: CCCGGATACGACCAGCGCCGCCATCACC
DNA 2: GGTGATGGCGGCGCTGGTCGTATCCGGG
With B1 the binding signal [1] was ~0.62 relative expression (lower = more activity, repressor), the binding signal [2] was ~0.67 relative expression (lower = more activity, repressor) and the binding signal [3] was ~0.13 relative expression (lower = more activity, repressor). For the same binder, the binding signal [4] was ~0.12 relative expression (lower = more activity, repressor).

B2: DPH1TSSR (dsDNA)
DNA 1: CCTGCCTGCGCATGTGGTACTAAAAAGA
DNA 2: TCTTTTTAGTACCACATGCGCAGGCAGG
In the case of B2, the binding signal [5] is reported as ~0.58 relative expression (lower = more activity, repressor).

B3: eGFP site 12 (8 fingers) (dsDNA)
DNA 1: GAAGTTCATCTGCACCACCGGCAAGCTGCCCGTG
DNA 2: CACGGGCAGCTTGCCGGTGGTGCAGATGAACTTC
In the case of B3, the binding signal [6] is reported as ~58 % GFP-negative cells (higher = more activity), the binding signal [7] is reported as ~24 % GFP-negative cells (higher = more activity) and the binding signal [8] is reported as ~65 % GFP-negative cells (higher = more activity).

B4: CDKN1C_200 (dsDNA)
DNA 1: TTGAAACTGAAAATACTACATTATGCTA
DNA 2: TAGCATAATGTAGTATTTTCAGTTTCAA
In the case of B4, the binding signal [9] is reported as ~17 relative expression (higher = more activity), the binding signal [10] is reported as ~11 relative expression (higher = more activity) and the binding signal [11] is reported as ~3.2 relative expression (higher = more activity).

B5: eGFP site 10 (8 fingers) (dsDNA)
DNA 1: TACGGCAAGCTGACCCTGAAGTTCATCTGCACCA
DNA 2: TGGTGCAGATGAACTTCAGGGTCAGCTTGCCGTA
In the case of B5, the binding signal [12] is reported as ~38 % GFP-negative cells (higher = more activity), the binding signal [13] is reported as ~28 % GFP-negative cells (higher = more activity) and the binding signal [14] is reported as ~59 % GFP-negative cells (higher = more activity).

B6: DPH1T2F8 (dsDNA)
DNA 1: CTGGTCGTATCCGGGGCAGCGGAGCAGG
DNA 2: CCTGCTCCGCTGCCCCGGATACGACCAG
In the case of B6, the binding signal [15] is reported as ~0.67 relative expression (lower = more activity, repressor).

B7: Rab1a T2R8 (dsDNA)
DNA 1: CTACTCCGTCCCCTAGAACACAATCAGC
DNA 2: GCTGATTGTGTTCTAGGGGACGGAGTAG
B7 was tested, and the binding signal [16] was ~0.41 relative expression (lower = more activity, repressor).

B8: eGFP site 18 (8 fingers) (dsDNA)
DNA 1: GCAGCACGACTTCTTCAAGTCCGCCATGCCCGAA
DNA 2: TTCGGGCATGGCGGACTTGAAGAAGTCGTGCTGC
In the case of B8, the binding signal [17] is reported as ~47 % GFP-negative cells (higher = more activity) and the binding signal [18] is reported as ~70 % GFP-negative cells (higher = more activity).

B9: DPH1T2R8 (dsDNA)
DNA 1: CTGCTCCGCTGCCCCGGATACGACCAGC
DNA 2: GCTGGTCGTATCCGGGGCAGCGGAGCAG
B9 was tested, and the binding signal [19] was ~0.77 relative expression (lower = more activity, repressor).

B10: UBE4A T1R8 (dsDNA)
DNA 1: TGTCTTACCAGAGCCTGAAGTGCCAGCA
DNA 2: TGCTGGCACTTCAGGCTCTGGTAAGACA
For B10, the binding signal [20] was ~0.22 relative expression (lower = more activity, repressor).

B11: UBE4A T1F8 (dsDNA)
DNA 1: GCTGCTGGCACTTCAGGCTCTGGTAAGA
DNA 2: TCTTACCAGAGCCTGAAGTGCCAGCAGC
In the case of B11, the binding signal [21] is reported as ~0.57 relative expression (lower = more activity, repressor).

B12: CDK125RC (dsDNA)
DNA 1: GCGGCCCGGCCCCCGCGCACCGCCCATTGGC
DNA 2: GCCAATGGGCGGTGCGCGGGGGCCGGGCCGC
B12 was tested, and the binding signal (array CDKN1C 125RC) was ~2.2 log2 fold change (RNA-seq) (higher = more activity).
